Biological target: Human EB3 (end-binding protein 3) (human, UniProt Q9UPY8 1-281)
Experiment: cross-linking

Human EB3 (end-binding protein 3), sequence (Q9UPY8 whole entry): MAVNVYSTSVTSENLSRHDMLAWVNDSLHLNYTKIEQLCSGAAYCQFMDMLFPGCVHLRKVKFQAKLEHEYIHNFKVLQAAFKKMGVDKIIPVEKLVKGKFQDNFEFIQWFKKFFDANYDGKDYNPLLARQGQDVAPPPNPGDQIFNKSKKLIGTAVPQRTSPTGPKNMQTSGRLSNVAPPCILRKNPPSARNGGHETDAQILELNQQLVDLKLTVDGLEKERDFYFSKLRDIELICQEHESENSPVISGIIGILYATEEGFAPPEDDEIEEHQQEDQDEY

B1: Human EB1 (end-binding protein 1) (natural protein)
chain: MAVNVYSTSVTSDNLSRHDMLAWINESLQLNLTKIEQLCSGAAYCQFMDMLFPGSIALKKVKFQAKLEHEYIQNFKILQAGFKRMGVDKIIPVDKLVKGKFQDNFEFVQWFKKFFDANYDGKDYDPVAARQGQETAVAPSLVAPALNKPKKPLTSSSAAPQRPISTQRTAAAPKAGPGVVRKNPGVGNGDDEAAELMQQVNVLKLTVEDLEKERDFYFGKLRNIELICQENEGENDPVLQRIVDILYATDEGFVIPDEGGPQEEQEEY
binding result: binds

— paper PMC3154886 (Molecular Biology of the Cell, 2011)
